# According to the nanobody polyreactivity screen of Harvey et al. (2022):
# Assay: yeast display, Sf9 membrane polyspecificity reagent, FACS + sequencing; frameworks hold sequencing errors
# Outline: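 Using colony PCR, genes from sorted yeast display clones were amplified, then sequenced on MiSeq at 2 × 250 and filtered by CDR length. The clones had been stained with 10% biotinylated, detergent-solubilized Sf9 membrane reagent for 1 hour at 4 °C and sorted by FACS into low and high (top ~1%) gates on anti-HA and streptavidin fluorescence. Polyreactivity labels come from the gate of origin.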
row,Sequence,polyreactivity (PSR sort gate)
1,QVQLVESGGCLVQAGGSLRLSCAASGSTFYVYTMGWYTQAPGKESELVAAISWTDGDTYYADSVKGRFTISRDTAKKTVYLEMNSLKPEDTAVYYCAADIAWLWWYGPGYDYWGQGTQVTVSS,low polyreactivity
2,QVQLVESGGCLVQAGGSLRLSCAASGYIFFINSMGWYRQAPGKERELVAAITRRGVSTYYADSVKGRFTISRDNAKNSVYLQMHSLKPEDTAVYYCATEHNHLGYYYWGQGTQVTVSS,low polyreactivity
3,QVQLVESGGCLVQAGGSLRLSCAASRRIFNYYAMGWYRQAPGKERELVAAINSGGSTYADSVKGRFTISRDNAKNTVYLQMNSLKPEDTAVYYCAKDGQLLSGRERPSGYDHWGQGTQVTVSS,low polyreactivity
4,QVQLVESGGCLVQAGGSLRLSCAATGSIFYGNTMVWYRQAPGKDRELLAAISSGGSTKYADSVKGRFTISRDNAKNTVYLQMNSLKPEDTAVYYCAADLPRYWVTWMDYRGQGTQVTVSS,low polyreactivity
5,QVQLVESGGCLVQAGGSLRLSCADSGLTFTHYTKGWYRQAPGKVRELVAAITTSGGSTYYADSVKGRFTISRDNAKNTVYLQMNSLKPEDTAVYDCDSDVWYWTYIGEYWGQGTQVTVSS,high polyreactivity
6,QVQLVESGGCLVQAGGSLRLSCASSGRTFLVYAMGWYRQAPGKERELVAAITSGGSTYYADSVKGRFTISRDNAKNTVYLQMNSLKPEDTAVYYCAAKIRGYPRRRYDYWGQGTQVTVSS,high polyreactivity
7,QVQLVESGGCLVQAGGSLRLSCDASGGIFVSYAMGWYRQAPRKDRELVAAITSGGGTSYADSVKGRFTISRDNAKNTVYLQMNSLKPEDTAVYYCNADGYLAERFVIRLDEYRDYDYWGQGTQVTVSS,low polyreactivity
8,QVQLVESGGCLVQAGGSLRLSCDAYGSTFDDNAMGWYRQAPGKERELVAGISTNGGSTSYADSVKGRFTISRDNAKNTVYLQMNSLKPEDTAVYYCAKGLYVHFDYWGQGTQVTVSS,low polyreactivity
9,QVQLVESGGCLVQAGGSLRLSCPASGSNFPDNAMGRYRPAPGKERELVAAISLSGGRTYYADSVKGRFTISRDNAKNTVYLQMNSLKPDDTAVYYCNKLTRFVKYDYWGQGTQVTVSS,high polyreactivity
10,QVQLVESGGCLVQAGGSLRLSCSASGRIFNTYAMGWYRQAPGKERDLVARISSGGTTYYADSVKGRFTISRDNAKNTVYLQMNSLKPEDTAVYYCNVRAVTPTRSRPFRYDYWGQGTQVTVSS,high polyreactivity
11,QVQLVESGGCLVQAGGSLRLSCVASGRTFRRYAMGWYRQAPGKERELLSTITLNGGSTYYADSVKGRFTISRDNATNTVDLQMNSLKPEDTAVYDCKRCTNVVRRGVYSFGYDYWGEGTQVTVSS,low polyreactivity
12,QVQLVESGGCLVQAGGSLRLSSAASGSTFRQYAMGWYRQAPGKERELVAAITWRGDNTYYADSVKGRFTISRDNAKNSVYLQMNSLKPEDTAVYYCAARWSYRLYWGYGYWGQGTQVTVSS,low polyreactivity
13,QVQLVESGGCLVQAGGSLRLSWDASGSIFLGYTIGWYRQAPGKERELVAAINSSGGSTYYAYSVKGRFTISRDNAKNTVFLQMNSLKPDDTAVYYCADANSILLFDSWGQGTQVTVSS,low polyreactivity
14,QVQLVESGGCLVQAGGSLRLTCAASGYIFANNARGWYRQAPGTERELVAAISSSGGRTYYADSVKGRFTISRDNAKNTVYLQMNSLKPEDTAVYYCAAESVDNIYYGFDYWGQGTQVTVSS,high polyreactivity
15,QVQLVESGGCLVQAGGSLSLSCAASGSIFGWYVMGWYRQAPGKERELGAAISSVGSTYYADSVKGRFTISRDNAKNTVYLQMNSLKPEDTAVYYCAKLRYPYLFSDDSEYWGQGTQVTVSS,low polyreactivity
16,QVQLVESGGCLVQAQGSLRLSCAASGFTFGYNAMGWYRQAPGKERELVAVISSRGGRTYYADSVKGRFTISRDNAKNTVYLQMYSLKPEDTAVYYCAKRSGSYSYPAVGGWGLGYCGQGTQVTVSS,high polyreactivity
17,QVQLVESGGCLVQPGGSLRLSCAASGRTSVRNAMGWYRQAPGKERELVAAISNGGRTNYADSVKGRFTISRGNAKNTVYLQMNSLKPQDTAVYYCAARGFWLYYHGGVRSGYDYWGQGTQVTVSS,high polyreactivity
18,QVQLVESGGFLVQAGGSLRLSCDASGSILADTSLGWYRQAPGKERELVAAISRRGGRTYYADSVKGRFTISRDNAKNTVYLQMNSLKPEDTGGYYCAAVGSFHIGDYWGLGTQVTVSS,high polyreactivity
19,QVQLVESGGGCVQAGGSLRLSCAASGFIFEQNAKGWYRQARGKEWELVARISWRGGSTYYADSEKGRFTISRDKAKITVYLQMNSLKPEDSAVYYCNAHEVDYFGYYPSDYWGQGTQVTVSS,low polyreactivity
20,QVQLVESGGGFFQAGGSLRLSCAASGTIGRNAMGWYRQAPGKESEFVPAISYRGTSTYYADSVKGRFTISRDNAKNTVYLQMKSLKPDDTAVYYCATYWAAGYRSRYDYWGQVTQVTVSS,high polyreactivity
21,QVQLVESGGGFVQAGASLRLSCAASGSIFRIYAIGWYRQAPGKERELVAAIDSGGSTNYADSVKGRFTISRDNAKNTVYLQMNSLKPEDTAVYYCNVDAWWLSYSEYDYWGQGTQVTVSS,high polyreactivity
22,QVQLVESGGGFVQAGGRLRLSCAASGRIFWMNAMGWYRQAPGKETEFVASITYGSDSTYYADSVKGRFTISRDNAKNTVYLQMNSLKPEDTAVYYCNREGWHYGPYGYWGQGTQVTVSS,low polyreactivity

row,Sequence,polyreactivity (PSR sort gate)
1,QVQLVESGGGFVQAGGSLGLSCAASGSTFQFYALGWYRQAPGKERELVAVITSGDDTNYADSVKGRFTISRDNATYTVYLQMNSLKPEDTAVYYCAVEYILVYTRVRSYWFDYWGQGTQVTVSS,low polyreactivity
2,QVQLVESGGGFVQAGGSLPLSCAASGRTFGPYAMRWYRQAPGKERELVAAISSSDGSTYYADSVKGRFTISRDNAKNTVYLQMNSLKPEDTAVYYCNARYYLWSTTRWYGYDYWGQGTQVTVSS,high polyreactivity
3,QVQLVESGGGFVQAGGSLRLRCAASGLIFAPYAMGWYRQAPGKEREFVAAITRSDGSTYYADSVKGRFTISRDNAKNTVYLQMNSLKPEDTAVYYCAAEPDTYWYTYDYWGQGSQVTVSS,low polyreactivity
4,QVQLVESGGGFVQAGGSLRLSCAACGSTFATYGMGWYRQAPGKERELVADITSGGSTYYADSVKGRFTISRDNAKNTVYLQMNSLKPEDTAVYSCNAPYGGPYYIQYDYWGQGTQVTVSS,low polyreactivity
5,QVQLVESGGGFVQAGGSLRLSCAASGFIFAVNAMGWYRQAPGKERELVAAISSSGTTNYADSVKGRFTISRDNAKNTVYLQMNSLKPEDTAVYYCNKRWRDKYPQYDYWGQGTQVTVSS,low polyreactivity
6,QVQLVESGGGFVQAGGSLRLSCAASGFIFTKYAMGWYRQAPGKERELVAAIRGSGGSTYYADSVKGRVTISRDNAKNTVYLQMNSLKPEDTAVYYCAAERSLGYDYWGQGTQVTVSS,high polyreactivity
7,QVQLVESGGGFVQAGGSLRLSCAASGFTFWVYAMGWYRQAPGKERELVAGITWSGGSTSYADSVKGRFTISRDNAKNTVYLQMNSLKPEDTAVYYCAADDFGYPDDMNYWGQGTQVTVSS,low polyreactivity
8,QVQLVESGGGFVQAGGSLRLSCAASGFTFYRNAMGWYRQAPGKERELVAAITWSGTSTYYADSVKGRFTISRDNAKTTVYVQMNSLKPEDTAVYYCNTVGYRGRSNSRFYYWGQGTQVTVSS,high polyreactivity
9,QVQLVESGGGFVQAGGSLRLSCAASGHIFFYYTKGWYRQAPGKERELVAGITIGGSTNYADSVKGRFTISRDNAKNSVYLQMNSLKPEDTAVYYCYVVLYVSIYSYGEYYYWGQGTQVTVSS,low polyreactivity
10,QVQLVESGGGFVQAGGSLRLSCAASGRIFVVNAMLWYRPAPAKESEFVAAISRSGGSTYYADSVKGRFTISRDKATNTVYLQMNSLKREDTAVYYCAADIVGFRTSGTYEYWGHGTQVTVSS,low polyreactivity
11,QVQLVESGGGFVQAGGSLRLSCAASGSTFKTYTLGWYRQAPGKDRELVAGITSGGSTSYADSVKGRFTISRDNAKNTVYLQMNSLKPEATAVYYCNADAYLVIYFYTVRDYGYDYWGQGTQVTVSS,low polyreactivity
12,QVQLVESGGGFVQAGGSLRLSCAASGSTFRWNAMGWYRHAPGKERELDASITAGGSTNYADSVKGRFTISRDNAKNTVYLQINSLTPEDTAVYYCNADVRRSTYYVWLYDYWGQGTQVTVSS,low polyreactivity
13,QVQLVESGGGFVQAGGSLRLTCAASGRTFAKNTMGWYRQAPGKERELVAAITWRGGTTYYADSVKGRVTISRDNAKNTVYLQMNSLKPEDTAVYYCAKDRYYGYFRSRSDYWGQGTQVTVSS,high polyreactivity
14,QVQLVESGGGFVQAGGSRRLSCAASGRIFDDNAMGGYRPAPGKERELVAAISSGDYTKYADSVKGRFTISRDNSKNSVYLQMNSLKPEDTAVYYCAADIVSDSFYQPEYDYWGQGTQVTVSS,low polyreactivity
15,QVQLVESGGGIFQAGGSLRLSCAASGFTFQYYAMGWYRQAPGKERELVAAISRRGGRTDYADSVKGRFTISRDNAKNTVYLQMNSLKPEDTAVYYCAAAVASPYDYWGLGTQVTVSS,high polyreactivity
16,QVQLVESGGGIVQAGCSLRLSCAASGFTFERYTMGWYRQAPGKERELVATISRRSGRTSYADSVKGRFTISRDNAKNTVYLQMNSLNPEDTAVYYCAVDDAYPDRYDYWGQGTQVTVSS,high polyreactivity
17,QVQLVESGGGIVQAGGILRLSCAASGSTFAGNGMGWYRQAPGKERELVAGIDVTGGSKYYADSVKGRYTISRDNAKNTVYLQMNSLKPEDTAVFDCNARYVYHSSFAGFDYWGQGTQVTVSS,low polyreactivity
18,QVQLVESGGGIVQAGGRLRKSCAASGRTFDSNAMGWYRQAPGKERELVAGISESGGSTYYADSVKGRFTISRDNAKNTVYLQMNSLKPEDTAVYYCDYSGITVYYHRAVDFIVSYDYWGQGTQVTVSS,low polyreactivity
19,QVQLVESGGGIVQAGGRLRLSWAASGNTFDYYAMGWYRQAPWKERELVAAITRGGSTNYADSVKGRFTISRDNAKNTVYLQRNSRKPEDTAVYYCAAEQRAPRGADDDYCGQGTQVTVSS,low polyreactivity
20,QVQLVESGGGIVQAGGSIRLRCAASGIIFVVNDMGWYRQAPGKERELVADISDSGGSTNYADSVKGRFTISRDNAKNTVYLQMNRLKPEDTAVYYCAADSADPTEYDYWGQGSQVTVSS,low polyreactivity
21,QVQLVESGGGIVQAGGSLRISCAASGFIFSSYDMGWYRQAPGKERELVAAITWSGGSTYYADSVKARFTISRDNAKNTVYLHMNSLKPEDTAVYYCNAYPYYLVRNMDSWGQGTQVTVSS,high polyreactivity
